Data: US20260055201A1 (SHENGHE CHINA BIOPHARMACEUTICAL, published 2026)

T1: Human TNFR2 mFc (manufacturer: Kaixia, CAT: TN-HM3R2) (human, UniProt P20333 23-257)
T1 construct: treated as one molecule; also called Human TNFR2 mFC (KaKa, CAT: TNF-HM3R2); human TNFR2 mFC protein; not shown: mFc part
T1 sequence (looked up): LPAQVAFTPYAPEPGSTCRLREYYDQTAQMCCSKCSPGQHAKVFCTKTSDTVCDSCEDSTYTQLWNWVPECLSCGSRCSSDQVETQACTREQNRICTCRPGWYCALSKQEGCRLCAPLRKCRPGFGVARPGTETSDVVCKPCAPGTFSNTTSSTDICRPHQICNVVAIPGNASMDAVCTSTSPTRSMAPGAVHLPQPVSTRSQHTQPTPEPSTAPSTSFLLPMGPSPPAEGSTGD

B1: TB-C1 (bispecific antibody, human IgG1, kappa)
light: DIQMTQSPSSLSASLGDRVTISCSASQGISNYLNWYQQKPDGTVKLLIYYTSTLHSGVPSRFSGSGSGTDYTLTISSLQPEDIATYYCQQYSKLPWTFGGGTKLEIKRTVAAPSVFIFPPSDEQLKSGTASVVCLLNNFYPREAKVQWKVDNALQSGNSQESVTEQDSKDSTYSLSSTLTLSKADYEKHKVYACEVTHQGLSSPVTKSFNRGEC
heavy: not shown
notes: also called antibody TB-C1
B2: TB-A (bispecific antibody, human IgG1, kappa)
light: B1 light
heavy: not shown
notes: also called antibody TB-A

How the values were obtained:
[1] = target: T2, Human 4-1BB His (manufacturer: Acro, CAT: 41B-H5258) (human, UniProt Q07011 24-186); experiment: ELISA, human 4-1BB His coated at 0.2 ug/mL, anti-human IgG detection, OD450
T2 construct: Bought protein; also called human 4-1BB protein; 4-1BB protein; not shown: His tag
Experimental: The coating solution was poured off. Each well was washed with 1×PBST at 300 μL, washed 4 times with a plate washer, and patted dry on a flat paper. It was blocked with 3% skim milk powder at 300 μL/well, and incubated at 37° C. for 1 h. The blocking solution was poured off, washed 4 times with a plate washer, and patted dry on a flat paper. Negative control and positive control were set up. […] The positive control and antibody were diluted to 10 μg/mL with 3% skim milk powder as the starting concentration, and then diluted by 3-fold gradient (11 gradients in total), and a blank well was set up and only the diluent was added. It was incubated at 37° C. for 1 h at 100 μL/well. The liquid in the well was discarded, washed 4 times with a plate washer, and patted dry on a flat paper. […] It was washed 6 times with a plate washer, and patted dry on a flat paper. TMB color developing solution was added at 100 μL/well, and wrapped with aluminum foil. Color development was performed at 37° C. in the dark for 8 min. Termination solution 1M HCl was added to terminate the color development reaction at 100 μL/well. Readings were taken at 450 nm on an ELISA reader.

[2] = target: T1, Human TNFR2 mFc (manufacturer: Kaixia, …); experiment: bridging ELISA: human TNFR2 mFc coated, antibody titrated, then human 4-1BB His 0.3 ug/mL, HRP anti-His detection, OD450
Experimental: (§1) The coating solution was poured off. Each well was washed with 1×PBST at 300 μL, washed 4 times with a plate washer, and patted dry on a flat paper. It was blocked with 3% skim milk powder at 300 μL/well, and incubated at 37° C. for 1 h. The blocking solution was poured off, washed 4 times with a plate washer, and patted dry on a flat paper. […] Starting at 50 nM, which was used as the initial concentration for 3-fold dilution, a total of 10 gradients were diluted, and a blank well was set up and only the diluent was added. It was incubated at 37° C. for 1 h at 100 μL/well. The liquid in the well was discarded, washed 4 times with a plate washer, and patted dry on a flat paper. Human 4-1BB His (manufacturer: Acro, CAT: 41B-H5258, LOT: 198-2146F1-W6) was diluted to 0.3 μg/mL, 100 μL was added to each well, and incubated at room temperature for 1 h. […] It was washed 6 times with a plate washer, and patted dry on a flat paper. TMB color developing solution was added at 100 μL/well, and wrapped with aluminum foil. Color development was performed at 37° C. in the dark for 8 min. Termination solution 1M HCl was added to terminate the color development reaction at 100 μL/well. Readings were taken at 450 nm on an ELISA reader.

[3] = target: T3, Human 4-1BB Fc (manufacturer: Acro, CAT: 41B-H5258) (human, UniProt Q07011 24-186); experiment: bridging ELISA: human 4-1BB Fc coated, antibody titrated, then human TNFR2 His 0.3 ug/mL, HRP anti-His detection, OD450
T3 construct: not shown: Fc part
Experimental: as §1, with “paper.” for “paper. Human 4-1BB His (manufacturer: Acro, CAT: 41B-H5258, LOT: 198-2146F1-W6) was diluted to 0.3 μg/mL, 100 μL was added to each well, and incubated at room temperature for 1 h.”

T2 sequence (Q07011 24-186 limits assumed): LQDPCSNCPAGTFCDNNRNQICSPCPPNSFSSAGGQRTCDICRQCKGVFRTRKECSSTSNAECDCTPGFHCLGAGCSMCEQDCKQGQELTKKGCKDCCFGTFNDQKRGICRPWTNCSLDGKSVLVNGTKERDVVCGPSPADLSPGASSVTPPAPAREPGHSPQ
T3 sequence (Q07011 24-186 limits assumed): as above

Row | Binder | EC50 (read off the curve) [1] [nM] | EC50 (read off the curve) [2] [nM] | EC50 (read off the curve) [3] [nM]
1 | B1 | ~0.1 | ~0.06 | –
2 | B2 | – | – | ~0.6
